Experimental data: patent EP1870467A1 (UNIVERSITY COLLEGE LONDON, dated 2007)

Biological target: the molecule itself
Experiment: western blot, band at about 120kD read as a homodimer

B1: full length MEPE (phosphatonin) expressed in an insect cell line and excreted into the medium (ligand)
chain: PTFQPQTEKTKQSCVEEQRQEEKNKDNIGFHHLGKRINQELSSKENIVQERKKDLSLSEASENKGSSKSQNYFTNRQRLNKEYSISNKENTHNGLRMSIYPKSTGNKGFEDGDDAISKLHDQEEYGAALIRNNMQHIMGPVTAIKLLGEENKENTPRNVLNIIPASMNYAKAHSKDKKKPQRDSQAQKSPVKSKSTHRIQHNIDYLKHLSKVKKIPSDFEGSGYTDLQERGDNDISPFSGDGQPFKDIPGKGEATGPDLEGKDIQTGFAGPSEAESTHLDTKKPGYNEIPEREENGGNTIGTRDETAKEADAVDVSLVEGSNDIMGSTNFKELPGREGNRVDAGSQNAHQGKVEFHYPPAPSKEKRKEGSSDAAESTNYNEIPKNGKGSTRKGVDHSNRNQATLNEKQRFPSKGKSQGLPIPSRGLDNEIKNEMDSFNGPSHENIITHGRKYHYVPHRQNNSTRNKGMPQGKGSWGRQPHSNRRFSSRRRDDSSESSDSGSSSESDGD
notes: Secreted into insect cell medium; also called full length phosphatonin; Bac-1
binding result: binds
